# Tested on: T1, MBP-RstA D52A D52A (Pseudomonas fluorescens 2P24), ORF:4a43b447
# T1 sequence: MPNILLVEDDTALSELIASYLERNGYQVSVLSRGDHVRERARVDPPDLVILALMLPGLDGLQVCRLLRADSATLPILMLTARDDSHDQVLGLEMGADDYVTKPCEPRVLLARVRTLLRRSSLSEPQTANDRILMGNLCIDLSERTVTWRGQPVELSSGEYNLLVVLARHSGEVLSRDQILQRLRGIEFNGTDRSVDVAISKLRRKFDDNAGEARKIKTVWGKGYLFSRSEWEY
# Assay: EMSA
# Conditions: EMSA: 50 mM Tris-HCl pH 7.5, 10 mM MgCl2, 10% glycerol, 0.5 mM EDTA, 50 mM KCl, 3 uM BSA, 50 ng DNA in 20 ul, 30 min room temperature, 6% native PAGE
row,Sequence,binding
1,CGGCCTGTGTGATTACACAATTTCACAGAGCGCCTACAAAGCTTCACCCCTGTCATGGGCCTGGATCCCTACCATGAGCGGCTCAATATTGGGGAAGCACC (double strand) [FAM-mexC promoter],binds more weakly
2,GGCAATAAACACCTCAATCAGGATGCGTCAGCAATGCGTAAGCATCAGCTGAACAAAATATGAGGCGACGTCTCTTGAAACGCGTCTCCGATCTATACAGGCCTTTGTCAGGCTTTTGTAAATCCGGATATTACGCAATTTGGCTGTTTACAAACAACCGTGTACGTAAGTATATTTCTTAGCATCCTACTAATTGAAAAAATGCTCCTTTTTTACCCTTCCACCTTTCGAGTGCGCCAGTTACGCGCCTGGACCCGAGGATTT (double strand) [FAM-emhA promoter],binds more weakly
